Article PMC8113602

Legend:
SP-gp41-CFP (HIV-1) = assay: FRET or BRET; acceptor photobleaching FRET in HEK293T cells 24 h after transfection; donor SP-gp41-CFP, acceptor CD63-YFP; 514 nm bleaching
[1] = target: gp41 bait of pBT3-SUC-gp41 (ectodomain and transmembrane region of gp41, HIV-1 Env aa 534-709); assay: split-ubiquitin yeast two-hybrid, β-galactosidase activity assay; settings: yeast NMY51, three independent yeast colonies, parent: est. 39, read off a plot

Row | Substance | reduction of FRET efficiency against CD63-YFP as acceptor (SP-gp41-CFP (HIV-1)) | response [1]
1 | CD63_(C145A,C146A)-YFP (from UniProt P08962 1-238) (natural protein) | < 58% | –
2 | CD63 TM4LEL (aa 108-238), single membrane spanning prey (from UniProt P08962) C145A; C146A | – | 11 Miller units
3 | CD63 TM4LEL (aa 108-238), single membrane spanning prey (from UniProt P08962) C177A | – | 25 Miller units
4 | CD63 TM4LEL (aa 108-238), single membrane spanning prey (from UniProt P08962) C169A; C170A | – | 30 Miller units
5 | CD63 TM4LEL (aa 108-238), single membrane spanning prey (from UniProt P08962) C191A | – | 17 Miller units
